These are literature values, as cited in article PMC10304963.

The target in data set [1] is SIRPα variant 2 (Homo sapiens) (UniProt P78324).
For data set [2], the target named is SIRPα variant 1 (Homo sapiens) (UniProt P78324).

Regarding CD47 (from UniProt Q08722), the Kd in data set [1] was 640 nM; in data set [2], 740 nM.

Usually Kd stands for a measure of binding affinity in units of concentration.
